Measurements published in the supplement of paper PMC12042874.
± gives the uncertainty stated by the source.

Assay: amyloid nucleation score (Sup35N fusion, yeast selection) (log enrichment); library NNK1; higher = more nucleation; inactive = no reads after selection
How it was run: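 The nucleation score is the log enrichment of output over input reads, calculated with DiMSum and centred on the mode score of non-aggregating sequences. Sequences with under 100 input reads were excluded. Reads came from Illumina sequencing of plasmid inserts from psi-negative yeast expressing Sup35N fused to peptides of 20 random codons, induced 24 hours with 100 μM copper sulfate and grown 7 days at 30°C without adenine and uracil.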

Substance | amyloid nucleation score
LEGKPSEFYRNFHIYGVVYQ | -0.531 ± 1.4
EMAELLAMRQLLRTKIH | 0.265 ± 0.34
WLIVIGMGRLGIVIMLGGLK | 0.723 ± 0.44
ELSGGA | 3.75 ± 0.1
HVNFNKGRMGGADSAVRCWW | -1.52 ± 1.8
SWSLALL | -0.278 ± 0.85
DGMVALYVGYATSLVTWAK | 0.65 ± 0.56
TGQACAWGGSVILTVSCDRY | 2.43 ± 0.12
VLVLNLSLPKSLSNPSMRFG | 8.028 ± 0.046
QQVSVLILPALTKGRKVV | -0.991 ± 0.69
LDRFCYLVYRRRCGYSRWQM | 0.527 ± 0.39
FWNMWAYEMRFVLRNYAL | -0.908 ± 0.43
DKHSLKILYKCGHPSTDNGQ | 1.51 ± 0.5
IIFKSVNYLLPIVVKNMCGT | 1.16 ± 0.13
YDLLSLGDTTCRHSEILNRP | 0.924 ± 0.63
DGGLCFLSMTTIIGGDTLDR | 0.018 ± 0.34
VLGPRWECMNRTYWRRTMVV | -0.011 ± 0.31
TGRVFLLYAAQ | -0.368 ± 0.88
HNKVATMW | 1.46 ± 0.25
APHWLLRDPIESTADNDVYY | 2.73 ± 0.44
IRWRSSFVQSMMVTHQHQSF | 1.85 ± 0.16
NWAKGNCYVAFRLKWRYNCG | 0.745 ± 0.74
LSPGYSHTN | -0.423 ± 0.6
ILYVVWFYVLLRWVRVLLLR | 0.884 ± 0.49
GYSNFTNYLFQ | 0.091 ± 0.28

Substance | amyloid nucleation score
MQTLNCSPNQAHSSIFN | 0.915 ± 0.97
HIVNCVKML | 0.788 ± 0.63
ADRWVLSFMEPCAT | inactive
SAGAYGVRGRGSTLMVVFEW | -0.066 ± 0.54
QFMGCRFKLSDSSIWKKSLR | 0.381 ± 0.64
GRFKWCGCNNTLWVGISRN | 1.9 ± 0.15
SCVLRLNMAYIIVVVNSLEC | inactive
SLSNCTGKNVLVTLS | 0.428 ± 1.2
AWDFWTWVSSGVWWYDASVR | -0.398 ± 0.91
TSLVVVSYMVTL | 1.93 ± 0.42
LPHYNMLSPRIIRTLVVERF | 0.694 ± 1.1
YCWFFMLWEYTCWLVF | 0.17 ± 0.28
IKVSIIGWGYILAPGGESNV | -1.28 ± 0.69
TLYCTFSTWYPLYKLQHDRY | 4.55 ± 0.14
LVDCMALLNRYTSRIMDNC | -1.07 ± 0.8
CVLSPALFMRARLLRGILGR | 0.332 ± 0.72
VSINGGEYMSEFAGICGPVD | 1.83 ± 0.46
HQLLTVL | -0.997 ± 0.28
SKSYVM | 0.468 ± 0.29
GLHKYPCYPTNSRYVVVINM | 3.27 ± 0.066
RIGFPSQSGLLVVAVLTQSA | -0.379 ± 0.43
NLDVYFLVRWLLSCRCACRS | 0.87 ± 0.62
FMKSKAAAYS | -0.247 ± 0.63
RRPNETS | -1.08 ± 2.4
RDIYRVYNV | -1.05 ± 0.72

Substance | amyloid nucleation score
LRALSYWIPARTPIVEGYAK | -0.333 ± 0.32
SYNFLRPYLLFSHPFSYDSS | 0.21 ± 0.6
WLGMRMVGNVVERLYSVRCQ | -0.111 ± 0.7
VTNPNYP | -0.696 ± 0.65
IFSENRDVGNVFSVGQIVIF | 3.72 ± 0.079
LLCFIIILCSRELNVDA | 0.279 ± 1.2
NYSYNYLVVKRENTGYSGQV | 0.917 ± 0.42
YGGNL | 0.169 ± 0.52
GKYFLSICHDT | 0.033 ± 0.36
SDVYRGVVIVGHMIAKHMLV | 0.494 ± 0.55
SNLLTRSPLMLSSIIMVMNC | -0.133 ± 0.75
NVSVENLGYTLSIPSSMICS | 0.319 ± 0.23
KRSNSFL | 0.319 ± 0.27
LVHMIAYAVGNLMCIRPLLI | -0.467 ± 0.43
CFSQVCDKFMMEMMFSCFKV | 0.451 ± 0.24
TYWGC | 0.186 ± 1
FTNRTIFFV | -0.023 ± 0.91
WRRRDRVLQCWL | inactive
FPSNPYPNLPNMDVKRSNAF | inactive
FFLMIQSVT | 0.84 ± 0.47
SPHSLTFSLMVMVRKKMMRS | 0.012 ± 1.4
RNGLALRLTNTTRSTYLSRQ | -0.166 ± 1.1
GNFKAMWFYPYRRCWQCT | -0.944 ± 1.1
QTRRVVHSGN | 0.284 ± 0.81
HMVHGMFY | -0.251 ± 0.7

Substance | amyloid nucleation score
IYIMKHASSSMNGVSVQDFM | 0.695 ± 0.67
VYMRISFNEVMCFVCDTGSW | 7.485 ± 0.046
DSCVFARSIVVNSNSFEVIE | 0.061 ± 0.47
CRTCGFPLLYSAELVLEVC | 0.018 ± 0.45
GVCVKGKRWDAEGVLRNAYT | 1.41 ± 0.46
WFYDAAFTMKVTVAIFVFFR | 0.675 ± 0.71
TACRLQYSNSYLFLSSAEPV | 1.28 ± 0.69
LTSRIEWNGHAQSLWWLLSK | 0.711 ± 0.21
MYVYVQISYFGLHCVWTMYK | -0.032 ± 0.45
NIVIIVVSNLN | 3.44 ± 0.082
SSSFGHYDTWLYSSLFQGLT | 3.46 ± 0.14
YVIFCTPSFFIL | 5.52 ± 0.068
LFLGLPELVQNSLDMLVSLW | 0.217 ± 0.31
DFVMLEV | -0.594 ± 0.68
DLTGKVRYQSVLPFVASPSM | 0.11 ± 0.62
HHPYFSAMM | 0.22 ± 0.54
SHTRQ | -0.223 ± 0.91
GQLLCWVASNYEGFNWVYKI | -0.161 ± 0.53
MFCIDSRAVAGMRDGRINLG | 1.64 ± 0.21
INFQNDELWVLETIGFHTYP | -0.256 ± 0.49
MKSFSMLPYIIVFRYY | 0.823 ± 0.85
WFQVASRVGLKKVYWVGHLE | inactive
RAIMRKIYYHVMMIWI | 0.153 ± 0.41
CGWRSLVVFSFDLDAS | 0.876 ± 0.47
KVLITCCGPKWSCSLAPDEL | 0.668 ± 0.58

Substance | amyloid nucleation score
LCELNSKAVYGSKMAHCYSS | -0.151 ± 0.33
VLEWRGPF | -0.239 ± 0.42
RCVIDDKLWGISLRGPMMGV | -1.48 ± 1.9
VLFLTGFGNHSFRTDQMATG | 0.287 ± 0.64
WRNYYHWVTFRSDRLDRWFG | 1.85 ± 0.12
YIVAVEHLLCSVRSYGHGMG | 0.724 ± 0.83
LKSSSCHQTSISHRALFCNL | -0.373 ± 1.2
SLGLNMFGLLCSNFQSVRVK | 0.129 ± 0.53
DARLC | -0.226 ± 1
NKYLDSKDWRAFCRSYFNLF | 0.891 ± 0.14
CSKSS | -0.909 ± 2.7
SSAFSLRLFDLSLNYFEFDE | -0.595 ± 0.68
TSYVMPEGFAVGFKMSM | 0.205 ± 0.66
LFASESRWSRRYMFPWCRLC | -0.445 ± 0.91
YNVCGELQDNIRCYISLTVL | inactive
ITVLSS | 1.47 ± 0.46
PKFSLMQLTPGLGTQ | 3.13 ± 0.13
YYWSYLALYSG | -0.57 ± 1.2
FHYWFIIKVPTWMVYRDLTA | -0.203 ± 0.34
RTINMQLVTLYLTSRVVDNF | 1.1 ± 0.47
YVTFGWIYTSLVPYRLEVIL | 0.243 ± 0.42
ENQFTVLSNGFDVIALFSFE | 1.07 ± 0.93
SLSRLRHNSFWQRTFAMLVS | inactive
SVRVHFMVRHGLGVRLSASD | 1.61 ± 0.16
DFGLCHAQNSITQAPDR | -0.153 ± 0.93

Substance | amyloid nucleation score
KGFLRFG | 0.333 ± 0.38
FFGGNSAVVVIRWMSRSGHW | 0.489 ± 0.64
ISRSNTLYAIFCARPAKVSL | -0.235 ± 0.6
WIRHSNNICMM | 1.26 ± 0.18
LPVFELSHTHSVKSLDGNGQ | -0.308 ± 0.33
HWRTCCWQEMLLMSALSRQG | -0.252 ± 0.46
LPSSSPMTRR | -0.837 ± 1.7
EANCLFEWSMMLRYSARDGT | 0.312 ± 1.4
IVDSHVSIATYRLEELRRTL | 2.11 ± 0.27
IQRKSITTWSPH | 3.43 ± 0.2
ASAFVRVMNV | 0.527 ± 0.5
RFHSFYNPQSSIDITLVGGF | 4.65 ± 0.089
VVRDRNYPFYLIIGRSVVLG | 5.16 ± 0.061
ARMSNMNPLFWLP | -0.04 ± 0.35
TLSGSYVF | -0.567 ± 0.3
SSYVNRDCAFLWDD | 2.75 ± 0.19
VLINYLKMSDTCNFRLFLFK | 5.916 ± 0.055
RFHWACKVYLSNYMV | 0.69 ± 0.25
DFYNETVTFFTHKIVINNWT | 2.17 ± 0.31
EDPVLSREGCKQVNPWILWG | 0.201 ± 1.4
CYFVCNDHCYFYQSLLQTHE | 5.32 ± 0.058
LNSIMQIQVWIFTLEMMSPM | -1.07 ± 0.98
VNHTKPVDILHC | 0.521 ± 0.31
SWDSLGHYNGAIE | -0.268 ± 0.54
FWLCRYTIGSRLLFVVQTST | 0.986 ± 0.65

Substance | amyloid nucleation score
KVLNVCRL | inactive
NHEKGQRTVTMWLSLKDSMG | 3.02 ± 0.12
CVGDFVME | -0.318 ± 0.98
LAMLSNGSFNGLFLLWSRCH | 0.525 ± 0.35
RIDARILLITCL | -1.51 ± 2.4
SYSGTVCNRLRLVLVVDD | -0.098 ± 0.47
AWWRCCGTLRTVRSAAKGLM | -0.292 ± 1.1
GVQWKLIFIGQCAVAVAWLA | -2.05 ± 1.8
GCFSPITQWSMWHVWRVRRQ | 0.49 ± 0.97
RDTHRDNRNLPSHLSSVYRK | -1.35 ± 2.4
LRYLQQWYST | 2.67 ± 0.19
SSMMLDYCRSYCANISTKCQ | 0.675 ± 0.24
QGILCFSIHSSNSMTGNTVF | 0.038 ± 0.25
SMRLGKTIAVLVINEHGMLQ | 2.17 ± 0.11
GSHYP | 0.586 ± 0.56
SYAFLCNGSSRGLIIAMVLT | -0.057 ± 0.29
YDSSLMGVWMCGCIARWEVS | -1.93 ± 2.7
DLFYINIVMKSFVHWVNHLH | 0.416 ± 0.28
WRSSWWWRCCYYSSSSMSRW | 1.12 ± 0.6
SFDYRENCPINTVIWLRLCK | 3.93 ± 0.098
KTWRHSFLYFLTGIESRKGA | 0.094 ± 0.26
CWIMYDYSSPGLFL | -1.1 ± 1.6
